Measurements from publication PMC7175280.

Target: Mus musculus inward rectifier K+ (Kir) channel 3.1 - Paraburkholderia xenovorans KirBac1.3 chimera (Mus musculus | Paraburkholderia xenovorans (Burkholderia xenovorans LB400)) (UniProt P63250)
Experiment: SEC; HiLoad 16/600 Superdex 200 in 20 mM HEPES pH 7.5, 150 mM KCl, 5 mM DDM, 2 mM DTT, 1 mM EDTA, 0.02% NaN3; protein loaded at ~3 mg/mL; tetramer fractions collected

stoichiometry N: 4
Substance: Mus musculus inward rectifier K+ (Kir) channel 3.1 - Paraburkholderia xenovorans KirBac1.3 chimera (from UniProt P63250 181-371; P63250 181-371)
